Experiments:
human 5T4 on cells [1] = molecular target: T1, human 5T4 on cells (human, UniProt Q13641 32-420); test: flow cytometry, SKOV-3 cells (endogenous human 5T4), labelled anti-human IgG secondary, MFI (mean)
T1 construct: also called TPBG; hu5T4
T1 sequence: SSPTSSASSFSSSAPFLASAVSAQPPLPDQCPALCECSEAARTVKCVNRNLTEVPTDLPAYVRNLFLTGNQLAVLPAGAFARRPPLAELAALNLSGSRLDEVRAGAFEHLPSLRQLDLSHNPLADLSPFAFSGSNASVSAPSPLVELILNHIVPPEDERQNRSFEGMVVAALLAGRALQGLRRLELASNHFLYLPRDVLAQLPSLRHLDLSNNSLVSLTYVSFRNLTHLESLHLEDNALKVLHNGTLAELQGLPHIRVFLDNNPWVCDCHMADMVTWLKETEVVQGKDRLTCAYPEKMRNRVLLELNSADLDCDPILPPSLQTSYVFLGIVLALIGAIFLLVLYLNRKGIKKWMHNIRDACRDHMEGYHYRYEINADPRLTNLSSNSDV
Procedure: Binding studies were performed by standard flow cytometry-based staining procedures two cell lines expressing 5T4:CHO-K1 cells (obtained from Alligator) transduced with human or cynomolgus macaque 5T4 and SKOV-3 human ovarian adenocarcinoma cells which express (human) 5T4. All labeling and washes were performed in U-bottom 96-well plates in saline buffer with 0.1% BSA and 2 mM EDTA. Cell were plated at approximately 100,000 cells per well and incubated with a range of 100 nM to 0.05 nM concentrations of test molecules in […], for 30 minutes on ice. Cells were washed three times then incubated for another 30 min on ice with fluorescently-labeled secondary polyclonal antibody, F(ab′)² goat anti-human IgG (Jackson ImmunoResearch Laboratories). The cells were then washed twice and the samples acquired in a BD LSRII or a Symphony A3 flow cytometer. The sample files were analyzed using FlowJo software; the mean fluorescence intensity (MFI-mean) or median fluorescence intensity (MFI-median) of the live population of cells in each well was calculated after gating on live cells (forward vs side scatter). Nonlinear regression analysis to determine EC₅₀ values was performed in GraphPad Prism 6® graphing and statistics software.

human 5T4 on cells [2] = molecular target: T1, human 5T4 on cells; test: cell-based or functional assay
human 5T4 on cells [3] = molecular target: T1, human 5T4 on cells; test: flow cytometry, BxPC-3 cells, streptavidin-PE, normalized MFI of 2 pooled experiments
Procedure: (§1) Prior to the FACS staining, all cell lines were characterized for their 5T4 expression levels using a receptor density kit (Quantum Simply Cellular, anti-human IgG, Bangs Laboratories, Inc). Adherent cell lines were cultured according to their supplier's instructions and were harvested from their cell culture flasks using Trypsin/EDTA, counted in R10 medium in a Burker chamber, and diluted in FACS buffer (PBS+0.5% BSA, 0.05% NaN₃) to a concentration of 4×10⁶ cells/mL. 50 μL (0.20×10⁶) of cell solution was added to a 96-well FACS staining plate (Falcon #351190). Cells were incubated for 20 min in 4° C. with 50 μL of the biotinylated ALG.APV-210 (2× final concentration). The antibodies were added in a serial dilution starting at 20 μg/mL titrating down in a 12 step ½ dilution down to 0.010 μg/mL. Following 2× washing with FACS buffer, cells were incubated for 30 min in 4° C. with 100 μL of a secondary antibody (streptavidin-PE, BD #554061, diluted 1/500). […] Cells were analysed for ALG.APV-210 binding using flow cytometry (FACSVerse) by gating on single cells. MFI values (secondary antibody only subtracted) from 1 out of 2 independent experiments, as well as normalized data and EC₅₀-values of pooled data from 2 experiments were determined and plotted using GraphPad Prism 7, non-linear regression log (agonist) vs. normalized response—variable slope.

human 5T4 on cells [4] = molecular target: T1, human 5T4 on cells; test: flow cytometry, CT26 cells transfected with human 5T4 (intermediate clone), biotinylated ALG.APV-210 + streptavidin-PE, 1 of 2 experiments
Procedure: as §1, with “μg/mL.” for “μg/mL. Following 2× washing with FACS buffer, cells were incubated for 30 min in 4° C. with 100 μL of a secondary antibody (streptavidin-PE, BD #554061, diluted 1/500).”
The binding (EC₅₀) of the biotinylated ALG.APV-210 to 5T4 when expressed on cells, either at endogenous levels on human tumor cells or on cells transfected to express 5T4 was assessed. […]

B1: ALG.APV-187 (bispecific antibody)
chain: EVQLLESGGGLVQPGGSLRLSCAASGFTFSHGSMYWVRQAPGKGLEWVSSISSGSGSTYYADSVKGRFTISHDNSKNTLYLQMNSLRAEDTAVYYCARSSYYGSYYSIDYWGQGTLVTVSSGGGGSGGGGSGGGGSGGGGSDIQMTQSPSSLSASVGDRVTITCRASQSISSYLNWYQQKPGKAPKLLIYAASSLQSGVPSRFSGSGSGTDFTLTISSLQPEDFATYYCQQYYDNLPTFGQGTKLEIKSSEPKSSDKTHTCPPCPAPEAAGAPSVFLFPPKPKDTLMISRTPEVTCVVVDVSHEDPEVKFNWYVDGVEVHNAKTKPREEQYNSTYRVVSVLTVLHQDWLNGKEYKCAVSNKALPAPIEKTISKAKGQPREPQVYTLPPSRDELTKNQVSLTCLVKGFYPSDIAVEWESNGQPENNYKTTPPVLDSDGSFFLYSKLTVDKSRWQQGNVFSCSVMHEALHNHYTQKSLSLSPGSGGGGSGGGGSGGGGSPSEVQLLESGGGLVQPGGSLRLSCAASGFTFSSYAMSWVRQAPGKCLEWVSAISGSGGSTYYADSVKGRFTISRDNSKNTLYLQMNSLRAEDTAVYYCARYYGGYYSAWMDYWGQGTLVTVSSGGGGSGGGGSGGGGSGGGGSDIQMTQSPSSLSASVGDRVTITCRASQSISSFLNWYQQKPGKAPKLLIYAASSLQSGVPSRFSGSGSGTDFTLTISSLQPEDSATYYCQQTYGYLHTFGCGTKLEIKR
notes: Optimized ADAPTIR scFv-Fc-scFv homodimer with stabilizing disulfide in the 1210 scFv
B1 was tested, and the EC50 (human 5T4 on cells [1]) was 9.2 nM and the “Maximum MFI” value (human 5T4 on cells [1]) was 1800.

B2: ALG.APV-210 (bispecific antibody)
chain: EVQLLESGGGLVQPGGSLRLSCAASGFTFSHGSMYWVRQAPGKGLEWVSSISSGSGSTYYADSVKGRFTISHDNSKNTLYLQMNSLRAEDTAVYYCARSSYYGSYYSIDYWGQGTLVTVSSGGGGSGGGGSGGGGSGGGGSDIQMTQSPSSLSASVGDRVTITCRASQSISSYLNWYQQKPGKAPKLLIYAASSLQSGVPSRFSGSGSGTDFTLTISSLQPEDFATYYCQQYYDNLPTFGQGTKLEIKEPKSSDKTHTCPPCPAPEAAGAPSVFLFPPKPKDTLMISRTPEVTCVVVDVSHEDPEVKFNWYVDGVEVHNAKTKPREEQYNSTYRVVSVLTVLHQDWLNGKEYKCAVSNKALPAPIEKTISKAKGQPREPQVYTLPPSRDELTKNQVSLTCLVKGFYPSDIAVEWESNGQPENNYKTTPPVLDSDGSFFLYSKLTVDKSRWQQGNVFSCSVMHEALHNHYTQKSLSLSPGSGGGGSGGGGSGGGGSPSEVQLLESGGGLVQPGGSLRLSCAASGFTFSSYAMSWVRQAPGKCLEWVSAISGSGGSTYYADSVKGRFTISRDNSKNTLYLQMNSLRAEDTAVYYCARYYGGYYSAWMDYWGQGTLVTVSSGGGGSGGGGSGGGGSGGGGSDIQMTQSPSSLSASVGDRVTITCRASQSISSFLNWYQQKPGKAPKLLIYAASSLQSGVPSRFSGSGSGTDFTLTISSLQPEDSATYYCQQTYGYLHTFGCGTKLEIKR
notes: Optimized ADAPTIR scFv-Fc-scFv homodimer with stabilizing disulfide in the 1210 scFv; also called 5T4-CD137 bispecific antibody
B2 was tested, and the “EC50 (nM), IFNγ release of human CD8 T cells with CT26-h5T4^high cells” value (human 5T4 on cells [2]) was 0.41 nM and the “EC50 (nM), IFNγ release of human CD8 T cells with CT26-h5T4^low cells” value (human 5T4 on cells [2]) was 0.24 nM.

B3: biotinylated ALG.APV-210 (bispecific antibody)
chain: B2 chain
notes: also called ALG.APV-210 (biotinylated for FACS detection)
B3 was tested, and the EC50 (human 5T4 on cells [3]) was 20 nM and the “EC50 (read off the curve)” value (human 5T4 on cells [4]) was about 10 nM.

From patent US20190016816A1 (APTEVO RESEARCH AND DEVELOPMENT, published 2019)
